Test [1] deals with T1, hCMV UL128 + UL130 + UL131A (HEK293T co-transfectant) (hCMV, UniProt P16837 1-171; P16772 1-214). The test is described as follows: cell-based or functional assay.
Test [2] deals with T1, hCMV UL128 + UL130 + UL131A (HEK293T …). The test is described as follows: cell-based or functional assay. The source holds these as a separate data set.
Test [3] addresses T2, hCMV gH + gL + UL128 + UL130 + UL131A (5-member complex; HEK293T co-transfectant) (hCMV, UniProt P12824 24-743; P16832 31-278; P16837 1-171; P16772 1-214).
T2 construct: whole, on cells; in the functional rows it stands for the complex on virions or transduced cells of the strain or isolate named in the readout; also called gH/gL/UL128-131A complex; pentameric complex
The experiment in a line: cell competition; competitor 2F4-biotin.

Test [4] deals with T2, hCMV gH + gL + UL128 + UL130 + UL131A …. The test is described as follows: cell competition; competitor 5A2-biotin.
Test [5] shares this target. The test is described as follows: cell competition; competitor 6G4-biotin.
For test [6] the target is unchanged. The experiment in a line: cell competition; competitor 9I6-biotin.
For test [7] the target is unchanged. The test is described as follows: cell competition; competitor 10F7-biotin.
For test [8] the target is unchanged. The test is described as follows: cell competition; competitor 15D8-biotin.
Test [9] has the same target. The experiment in a line: cell competition; competitor 1F11-biotin.
The target is the same in test [10]. The experiment in a line: cell competition; competitor 4I22-biotin.
Test [11] shares this target. The test is described as follows: cell competition; competitor 4N10-biotin.
Test [12] shares this target. The test is described as follows: cell competition; competitor 2C12-biotin.
Test [13] shares this target. The test is described as follows: cell competition; competitor 8C15-biotin.
The target is the same in test [14]. The experiment in a line: cell competition; competitor 8I21-biotin.
For test [15] the target is unchanged. The test is described as follows: cell competition; competitor 8J16-biotin.

T1 sequence (P16837 whole entry, chain 1 of 2): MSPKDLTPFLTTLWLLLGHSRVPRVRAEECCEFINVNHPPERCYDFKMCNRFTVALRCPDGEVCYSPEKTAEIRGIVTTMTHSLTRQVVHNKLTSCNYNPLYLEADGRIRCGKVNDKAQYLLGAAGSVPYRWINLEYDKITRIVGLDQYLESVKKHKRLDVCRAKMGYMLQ
T1 sequence (P16772 whole entry, chain 2 of 2): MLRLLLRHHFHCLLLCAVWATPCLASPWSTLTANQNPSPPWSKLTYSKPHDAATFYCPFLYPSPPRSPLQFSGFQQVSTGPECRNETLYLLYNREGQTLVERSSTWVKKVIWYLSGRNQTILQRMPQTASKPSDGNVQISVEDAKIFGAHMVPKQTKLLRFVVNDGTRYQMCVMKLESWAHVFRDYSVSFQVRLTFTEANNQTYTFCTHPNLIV

B1: 2C12 (antibody, V domains shown)
VH: QITLRESGPTLVKPTQTLTLTCTFSGFSLNTNGVGVGWIRQPPGKALEWLALIYWNGNEGYSPSLKSRLTITKDTSKNQVVLTMTNMDPVDTATYYCVHWPQGLTTVTRLAFDIWGQGTMVTVSS
VL: QSALTQPRSVSGSPGQSVTISCTGTTSDVGRYNFVSWYQQHPGKAPKLLMYDVSQRPSGVPSRFSGSKSGNTASLTISGLQAEDEAVFYCCSYAGGNFFSYVFGTGTKVTVL
notes: human IgG; also called 2C12-biotin
In the case of B1, the “50% neutralization VR1814, ARPE” value in test [1] is less than 0.01 µg/mL. Besides, in test [1], the “50% neutralization VR1814, MRC-9” value is no more than 2 µg/mL. In test [2], the “90% neutralization VR1814, ARPE” value is 0.006 µg/mL. In addition, the “90% neutralization VR1814, MRC-9” value in test [2] is greater than 10 µg/mL. Besides, the “Inhibition of binding (%)” value in test [3] is 0%; in test [4], 0%; in test [5] it was 100%; in [6], 100%; in test [7], 0%; in test [8], 0%. Further, the “Inhibition of binding (%)” value turned out to be 0% in test [9]; 0% in test [10]; 0% in test [11]; 100% in [12]; 100% in test [13]; 0% in [14]. In test [15], the “Inhibition of binding (%)” value is 100%.

B2: 9I6 (antibody, V domains shown)
VH: EVQLVQSGAEVKKPGESLKISCRESGDTFPAYWIAWVRQMPGKGLEWMGIIYPIDSETTYSPSFQGQVTISADKSINTAYLQWSSLKASDSAIYYCARGTSTGLREAFHIWGQGTMVTVSS
VL: DVVMTQSPLSLAVTLGQPAYISCRSSQSLGYSDGNTYLNWFQQRPGQSPRRLIYEVSNRDSGVPDRFSGSGSGTDFTLKISRVEAEDVGTYYCMQGTHWPPMCSFGQGTKLEIK
notes: human IgG; also called 9I6-biotin; 916
Take B2: in test [1], the “50% neutralization VR1814, ARPE” value was less than 0.001 µg/mL. Further, the “50% neutralization VR1814, MRC-9” value in test [1] is greater than 2 µg/mL. Further, the “90% neutralization VR1814, ARPE” value in [2] turned out to be 0.0007 µg/mL. The “90% neutralization VR1814, MRC-9” value in [2] is greater than 10 µg/mL. The “Inhibition of binding (%)” value is 0% in [3]; 100% in test [5]; 100% in test [6]; 0% in test [9]; 0% in test [10]; 100% in [12]. The “Inhibition of binding (%)” value was found to be 100% in test [13], 0% in test [14] and 100% in test [15].

Values taken from patent US20170296650A1 (Novartis, published 2017).
